Values quoted from earlier work as cited in US20160296600A1, “Relaxin Prodrugs” (ASCENDIS PHARMA RELAXIN DIVISION A/S, priority 2013, published 2016).

Conditions: humans, intravenous administration

In the case of “Relaxin: Mature human relaxin, hormonal peptide of approximately 6000 daltons; A-chain SEQ ID NO:1, B-chain SEQ ID NO:2”, the half-life is given as “less than 10 minutes”.
